Source: publication PMC11294680

Target: human BKCa channel α-subunit (hSlo1), residues 1-1,114 (human)
Test: cryo-EM structure; purified tetrameric channel (5.5 mg/ml, 44 μM) in 20 mM Tris-HCl pH 8.0, 450 mM KCl, 10 mM CaCl2, 10 mM MgCl2, 0.01% glyco-diosgenin, POPE/POPC/POPA, mixed with 1 mM CTIBD on ice for 30 min; C1 and C4 symmetry

- stoichiometry N: 4
Substance: human BKCa channel α-subunit (hSlo1), residues 1-1,114 (natural protein)
